Experimental data taken from US20260201033A1 (LTZ THERAPEUTICS, published 2026).

T1: CD79b on Ramos cells and on endogenous B cells of human PBMCs (human, UniProt P40259 29-229)
T1 sequence (looked up): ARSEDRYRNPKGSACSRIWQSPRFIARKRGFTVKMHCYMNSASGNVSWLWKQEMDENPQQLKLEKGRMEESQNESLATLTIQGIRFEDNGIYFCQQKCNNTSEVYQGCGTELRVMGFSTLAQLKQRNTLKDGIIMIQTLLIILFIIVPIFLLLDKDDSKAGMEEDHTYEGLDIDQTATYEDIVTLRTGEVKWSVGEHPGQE

B1: CD79b/5C7 (2+1 B) Fc-silenced (bispecific antibody, human IgG1, kappa, L234A L235A)
heavy 1: EQQLVETGGGLIQPGGSLRLSCAASGFTINIDYWISWVRQAPGKGLEWIGIIDPGDGTTYFAIWVSGRFTISFDNSKNTVYLQMNSLRAEDTAVYFCVREFSASAYQYDLWGPGTLVTVSSASTKGPSVFPLAPSSKSTSGGTAALGCLVKDYFPEPVTVSWNSGALTSGVHTFPAVLQSSGLYSLSSVVTVPSSSLGTQTYICNVNHKPSNTKVDKKVEPKSCDKTHTCPPCPAPEAAGGPSVFLFPPKPKDTLMISRTPEVTCVVVDVSHEDPEVKFNWYVDGVEVHNAKTKPREEQYNSTYRVVSVLTVLHQDWLNGKEYKCKVSNKALGAPIEKTISKAKGQPREPQVCTLPPSRDELTKNQVSLSCAVKGFYPSDIAVEWESNGQPENNYKTTPPVLDSDGSFFLVSKLTVDKSRWQQGNVFSCSVMHEALHNRFTQKSLSLSPGK
heavy 2: not shown
light: ELVMTQSPATLSVSPGERATLSCRASEDIENYLAWYQQKPGQPPRLLIYRASTLSSGVPARFSGSGSGTEFTLTISSLQSEDFAVYYCQQGYRNSNVDNPFGGGTKVEIKRTVAAPSVFIFPPSDEQLKSGTASVVCLLNNFYPREAKVQWKVDNALQSGNSQESVTEQDSKDSTYSLSSTLTLSKADYEKHKVYACEVTHQGLSSPVTKSFNRGEC
B2: CD79b/5C7 (2+1 A) Fc-silenced (bispecific antibody, human IgG1, kappa, L234A L235A)
heavy 1: EQQLVETGGGLIQPGGSLRLSCAASGFTINIDYWISWVRQAPGKGLEWIGIIDPGDGTTYFAIWVSGRFTISFDNSKNTVYLQMNSLRAEDTAVYFCVREFSASAYQYDLWGPGTLVTVSSASTKGPSVFPLAPSSKSTSGGTAALGCLVKDYFPEPVTVSWNSGALTSGVHTFPAVLQSSGLYSLSSVVTVPSSSLGTQTYICNVNHKPSNTKVDKKVEPKSCDGGGGSGGGGSGGGGSEQQLVETGGGLIQPGGSLRLSCAASGFTINIDYWISWVRQAPGKGLEWIGIIDPGDGTTYFAIWVSGRFTISFDNSKNTVYLQMNSLRAEDTAVYFCVREFSASAYQYDLWGPGTLVTVSSASTKGPSVFPLAPSSKSTSGGTAALGCLVKDYFPEPVTVSWNSGALTSGVHTFPAVLQSSGLYSLSSVVTVPSSSLGTQTYICNVNHKPSNTKVDKKVEPKSCDKTHTCPPCPAPEAAGGPSVFLFPPKPKDTLMISRTPEVTCVVVDVSHEDPEVKFNWYVDGVEVHNAKTKPREEQYNSTYRVVSVLTVLHQDWLNGKEYKCKVSNKALGAPIEKTISKAKGQPREPQVCTLPPSRDELTKNQVSLSCAVKGFYPSDIAVEWESNGQPENNYKTTPPVLDSDGSFFLVSKLTVDKSRWQQGNVFSCSVMHEALHNRFTQKSLSLSPGK
heavy 2: not shown
light: ELVMTQSPATLSVSPGERATLSCRASEDIENYLAWYQQKPGQPPRLLIYRASTLSSGVPARFSGSGSGTEFTLTISSLQSEDFAVYYCQQGYRNSNVDNPFGGGTKVEIKRTVAAPSVFIFPPSDEQLKSGTASVVCLLNNFYPREAKVQWKVDNALQSGNSQESVTEQDSKDSTYSLSSTLTLSKADYEKHKVYACEVTHQGLSSPVTKSFNRGEC
B3: CD79b/5C7 (1+1 B) Fc-silenced (bispecific antibody, human IgG1, kappa, L234A L235A)
heavy 1: EQQLVETGGGLIQPGGSLRLSCAASGFTINIDYWISWVRQAPGKGLEWIGIIDPGDGTTYFAIWVSGRFTISFDNSKNTVYLQMNSLRAEDTAVYFCVREFSASAYQYDLWGPGTLVTVSSASTKGPSVFPLAPSSKSTSGGTAALGCLVKDYFPEPVTVSWNSGALTSGVHTFPAVLQSSGLYSLSSVVTVPSSSLGTQTYICNVNHKPSNTKVDKKVEPKSCDKTHTCPPCPAPEAAGGPSVFLFPPKPKDTLMISRTPEVTCVVVDVSHEDPEVKFNWYVDGVEVHNAKTKPREEQYNSTYRVVSVLTVLHQDWLNGKEYKCKVSNKALGAPIEKTISKAKGQPREPQVCTLPPSRDELTKNQVSLSCAVKGFYPSDIAVEWESNGQPENNYKTTPPVLDSDGSFFLVSKLTVDKSRWQQGNVFSCSVMHEALHNRFTQKSLSLSPGK
heavy 2: not shown
light: ELVMTQSPATLSVSPGERATLSCRASEDIENYLAWYQQKPGQPPRLLIYRASTLSSGVPARFSGSGSGTEFTLTISSLQSEDFAVYYCQQGYRNSNVDNPFGGGTKVEIKRTVAAPSVFIFPPSDEQLKSGTASVVCLLNNFYPREAKVQWKVDNALQSGNSQESVTEQDSKDSTYSLSSTLTLSKADYEKHKVYACEVTHQGLSSPVTKSFNRGEC
B4: CD79b/5C7 (2+1 B) Fc-optimized (bispecific antibody, human IgG1, kappa)
heavy 1: EQQLVETGGGLIQPGGSLRLSCAASGFTINIDYWISWVRQAPGKGLEWIGIIDPGDGTTYFAIWVSGRFTISFDNSKNTVYLQMNSLRAEDTAVYFCVREFSASAYQYDLWGPGTLVTVSSASTKGPSVFPLAPSSKSTSGGTAALGCLVKDYFPEPVTVSWNSGALTSGVHTFPAVLQSSGLYSLSSVVTVPSSSLGTQTYICNVNHKPSNTKVDKKVEPKSCDKTHTCPPCPAPELLAGPSVFLFPPKPKDTLMISRTPEVTCVVVDVSHEDPEVKFNWYVDGVEVHNAKTKPREEQYNSTYRVVSVLTVLHQDWLNGKEYKCKVSNKALPLPEEKTISKAKGQPREPQVYTLPPSRDELTKNQVSLSCAVKGFYPSDIAVEWESNGQPENNYKTTPPVLDSDGSFFLVSKLTVDKSRWQQGNVFSCSVMHEALHNHYTQKSLSLSPGK
heavy 2: EQQLVETGGGLIQPGGSLRLSCAASGFTINIDYWISWVRQAPGKGLEWIGIIDPGDGTTYFAIWVSGRFTISFDNSKNTVYLQMNSLRAEDTAVYFCVREFSASAYQYDLWGPGTLVTVSSASTKGPSVFPLAPSSKSTSGGTAALGCLVKDYFPEPVTVSWNSGALTSGVHTFPAVLQSSGLYSLSSVVTVPSSSLGTQTYICNVNHKPSNTKVDKKVEPKSCDKTHTCPPCPAPELLAGPSVFLFPPKPKDTLMISRTPEVTCVVVDVSHEDPEVKFNWYVDGVEVHNAKTKPREEQYNSTYRVVSVLTVLHQDWLNGKEYKCKVSNKALPLPEEKTISKAKGQPREPQVYTLPPSRDELTKNQVSLWCLVKGFYPSDIAVEWESNGQPENNYKTTPPVLDSDGSFFLYSKLTVDKSRWQQGNVFSCSVMHEALHNHYTQKSLSLSPGKGGGGSGGGGSGGGGSDIQMTQSPSSLSASVGDRVTITCQASESVDRNNRLAWFQQKPGKPPKLLIYTTSTLASGVPSRFSGSGSGTDFTLTISSLQPEDVATYYCAGYRGAHTDGDAFGGGTKVEIKGGGGSGGGGSGGGGSGGGGSEQQLVESGGGLVKPGGSLRLSCAASGFSFSRSSYMCWVRQAPGKGLEWIGCLSVGDGHTYYASWAKGRFTISKDSAKNSVYLQMNSLRAEDTAVYFCARAPSYSGDGGHGYDLWGPGTLVTVSS
light: ELVMTQSPATLSVSPGERATLSCRASEDIENYLAWYQQKPGQPPRLLIYRASTLSSGVPARFSGSGSGTEFTLTISSLQSEDFAVYYCQQGYRNSNVDNPFGGGTKVEIKRTVAAPSVFIFPPSDEQLKSGTASVVCLLNNFYPREAKVQWKVDNALQSGNSQESVTEQDSKDSTYSLSSTLTLSKADYEKHKVYACEVTHQGLSSPVTKSFNRGEC

Tests used:
Assay in all cases: cell-based or functional assay
[1] = target: T1, CD79b on Ramos cells and on endogenous …
[2] = target: T1, CD79b on Ramos cells and on endogenous …; remark: listed apart in the source
[3] = target: T1, CD79b on Ramos cells and on endogenous …; remark: listed apart in the source
[4] = target: T1, CD79b on Ramos cells and on endogenous …; remark: listed apart in the source
[5] = target: T1, CD79b on Ramos cells and on endogenous …; remark: listed apart in the source
[6] = target: T1, CD79b on Ramos cells and on endogenous …; remark: listed apart in the source

Binder	IC50 (nM), Ramos cell killing by M2 macrophages, Donor 022 [1]	IC50 (nM), Ramos cell killing by M2 macrophages, Donor 431 [1]	IC50 (nM), Ramos cell killing by M1 macrophages, Donor 431 [2]	IC50 (nM), Ramos cell killing by PBMCs (test 2), Donor 431 [3]	IC50 (nM), Ramos cell killing by PBMCs (test 3), Donor 281 [4]	IC50 (nM), Ramos cell killing by PBMCs (test 3), Donor 367 [4]	IC50 (nM), killing of endogenous B cells by PBMCs, Donor 367 [5]	IC50 (nM), killing of endogenous B cells by PBMCs, Donor 431 [5]	IC50 (nM), Ramos cell killing by M0 macrophages, Donor 022 [6]	IC50 (nM), Ramos cell killing by M0 macrophages, Donor 431 [6]	IC50 (nM), Ramos cell killing by M2 macrophages, Donor 100 [1]	IC50 (nM), Ramos cell killing by M1 macrophages, Donor 100 [2]	IC50 (nM), Ramos cell killing by M0 macrophages, Donor 100 [6]	IC50 (nM), Ramos cell killing by M2 macrophages, Donor 233 [1]	IC50 (nM), Ramos cell killing by PBMCs (test 3), Donor 022 [4]	IC50 (nM), killing of endogenous B cells by PBMCs, Donor 023 [5]	IC50 (nM), Ramos cell killing by M0 macrophages, Donor 233 [6]	IC50 (nM), Ramos cell killing by PBMCs (test 2), Donor 234 [3]	IC50 (nM), killing of endogenous B cells by PBMCs, Donor 234 [5]
B1	0.002 nM	0.002 nM	0.005 nM	0.0155 nM	0.0165 nM	0.0685 nM	0.0155 nM	0.0155 nM	0.003 nM	0.002 nM									
B2	0.003 nM								0.003 nM		0.001 nM	0.001 nM	0.002 nM						
B3		0.003 nM	0.005 nM	0.0329 nM	0.0452 nM	0.29 nM	0.0329 nM	0.0329 nM		0.004 nM	0.002 nM	0.001 nM	0.006 nM	0.005 nM	0.334 nM	0.0833 nM	0.003 nM		
B4	0.002 nM	0.001 nM	0.005 nM	0.0104 nM	0.0112 nM	0.0186 nM	0.104 nM	0.104 nM	0.003 nM	0.004 nM								0.0639 nM	0.0207 nM
